Test results from patent US20220259297A1 (ACCELERON PHARMA, published 2022).

Columns and labels:
Test in all cases: SPR (Biacore); receptor-Fc captured by anti-Fc antibody, ligand injected
GDF11 = target: T1, GDF11 (UniProt O95390 299-407)
T1 construct: also called BMP11
T1 sequence (looked up): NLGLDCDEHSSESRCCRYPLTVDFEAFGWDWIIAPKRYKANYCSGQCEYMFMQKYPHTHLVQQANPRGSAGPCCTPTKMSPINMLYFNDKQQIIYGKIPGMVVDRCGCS
Experimental: (§1) A Biacore™-based binding assay was used to compare ligand binding selectivity of an exemplary ALK4-Fc:ActRIIB-Fc heterodimeric complex as described above with the binding selectivity of ActRIIB-Fc and ALK4-Fc homodimer complexes. The ALK4-Fc:ActRIIB-Fc heterodimer, ActRIIB-Fc homodimer, and ALK4-Fc homodimer were independently captured onto the system using an anti-Fc antibody. Ligands were injected and allowed to flow over the captured receptor protein. Results are summarized in the Table 5 below, in which ligand off-rates (kd) most indicative of effective ligand traps are denoted by gray shading.

activin B = target: T2, activin B (UniProt P09529 293-407)
T2 sequence (looked up): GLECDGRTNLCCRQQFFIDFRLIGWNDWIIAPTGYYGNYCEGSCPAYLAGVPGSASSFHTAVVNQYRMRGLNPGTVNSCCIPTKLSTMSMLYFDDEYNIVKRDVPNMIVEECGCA
Experimental: as §1

GDF8 = target: T3, GDF8 (UniProt O14793 267-375)
T3 construct: also called myostatin
T3 sequence (looked up): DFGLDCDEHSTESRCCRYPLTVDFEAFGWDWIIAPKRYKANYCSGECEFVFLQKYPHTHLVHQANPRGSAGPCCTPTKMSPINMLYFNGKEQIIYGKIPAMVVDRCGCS
Experimental: as §1

BMP6 = target: T4, BMP6 (UniProt P22004 382-513, limits assumed)
T4 sequence (looked up): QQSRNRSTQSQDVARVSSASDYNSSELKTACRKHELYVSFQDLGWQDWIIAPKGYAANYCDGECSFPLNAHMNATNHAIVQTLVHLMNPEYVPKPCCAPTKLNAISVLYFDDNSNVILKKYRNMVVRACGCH
Experimental: as §1

GDF3 = target: T5, GDF3 (UniProt Q9NR23 251-364)
T5 sequence (looked up): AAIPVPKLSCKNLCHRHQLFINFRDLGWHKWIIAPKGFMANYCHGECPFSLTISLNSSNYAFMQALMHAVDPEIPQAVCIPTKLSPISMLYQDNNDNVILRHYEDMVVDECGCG
Experimental: as §1

activin A = target: T6, activin A (UniProt P08476 311-426)
T6 sequence (looked up): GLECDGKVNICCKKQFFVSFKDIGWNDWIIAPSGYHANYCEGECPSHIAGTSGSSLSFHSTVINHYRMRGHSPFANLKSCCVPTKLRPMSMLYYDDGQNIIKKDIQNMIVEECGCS
Experimental: as §1

BMP10 = target: T7, BMP10 (UniProt O95393 317-424)
T7 sequence (looked up): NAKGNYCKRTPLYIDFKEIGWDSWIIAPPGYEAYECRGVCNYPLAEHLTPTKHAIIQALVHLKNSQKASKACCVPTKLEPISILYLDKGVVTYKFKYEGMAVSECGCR
Experimental: as §1

B1: ALK4-Fc:ActRIIB-Fc heterodimer (Fc fusion)
chain 1: SGPRGVQALLCACTSCLQANYTCETDGACMVSIFNLDGMEHHVRTCIPKVELVPAGKPFYCLSSEDLRNTHCCYTDYCNRIDLRVPSGHLKEPEHPSMWGPVETGGGTHTCPPCPAPELLGGPSVFLFPPKPKDTLMISRTPEVTCVVVDVSHEDPEVKFNWYVDGVEVHNAKTKPREEQYNSTYRVVSVLTVLHQDWLNGKEYKCKVSNKALPAPIEKTISKAKGQPREPQVYTLPPSREEMTKNQVSLTCLVKGFYPSDIAVEWESNGQPENNYDTTPPVLDSDGSFFLYSDLTVDKSRWQQGNVFSCSVMHEALHNHYTQKSLSLSPG
chain 2: GRGEAETRECIYYNANWELERTNQSGLERCEGEQDKRLHCYASWRNSSGTIELVKKGCWLDDFNCYDRQECVATEENPQVYFCCCEGNFCNERFTHLPEAGGPEVTYEPPPTAPTGGGTHTCPPCPAPELLGGPSVFLFPPKPKDTLMISRTPEVTCVVVDVSHEDPEVKFNWYVDGVEVHNAKTKPREEQYNSTYRVVSVLTVLHQDWLNGKEYKCKVSNKALPAPIEKTISKAKGQPREPQVYTLPPSRKEMTKNQVSLTCLVKGFYPSDIAVEWESNGQPENNYKTTPPVLKSDGSFFLYSKLTVDKSRWQQGNVFSCSVMHEALHNHYTQKSLSLSPGK
notes: The C-terminal lysine is optional; also called ALK4-Fc:ActRIIB-Fc heterodimeric complex; ALK4:ActRIIB heterodimer
GDF11
  koff: 0.00011 s⁻¹
  kon: 3.8e+07 M⁻¹ s⁻¹
Activin B
  koff: 4e-05 s⁻¹
  kon: 7.1e+06 M⁻¹ s⁻¹
GDF8
  koff: 0.00021 s⁻¹
  kon: 390000 M⁻¹ s⁻¹
BMP6
  koff: 0.0055 s⁻¹
  kon: 2e+06 M⁻¹ s⁻¹
GDF3
  koff: 0.017 s⁻¹
  kon: 3.4e+06 M⁻¹ s⁻¹
Activin A
  koff: 0.00015 s⁻¹
  kon: 1.3e+07 M⁻¹ s⁻¹
BMP10
  koff: 0.0041 s⁻¹
  kon: 5.6e+07 M⁻¹ s⁻¹
